Measured values published in the DeepSol protein solubility set.

Test: soluble on expression in E. coli; label from the status in PepcDB or PDB records

| Sequence | soluble on expression in E. coli |
| --- | --- |
| MGSDKIHHHHHHMTEATYYFIGIKGSGMSALALVLHDLGHQVLGSDITQYTFTQKGLAAAGIKMLPFDPANLKPGYTVIAGNSFTDDHPEIKRAKELGLTIYRYHEFLGKLIEGYTSIGVAGAHGKTSTTGLLAHTLSGVAKTSYLIGDGTGKGIPDSKFFVFEADEYRRHFLAYHPDYMIMTNIDFDHPDYYTGFEDVYDAFETEANQVKKAIVAWGDDPWLRKLKAKVPVYYYGISDRDDFQARNVDRDTKGSSFDAYFHDQLIGHFFVPLFGEHSVLNALAVVAVAHMEKLDAKLIARELGNFSGVKRRFAEKDLKDMIIVDDYAHHPNEIKATLDAARQKYPDKAIIAVFQPHTFSRTQAYEPQYVQVLSQADQTFLTPIFSSAREKTGKIRSEDITAQIKGAAVIHQEDMKPLLQYHNAVVVFMGAGDIQKYEKAYETILAEE | not soluble |
| MGHHHHHHSHMPQFSPSYSFPVQIYYEDTDFSGVVYHPNFLKYFERAREHVIGAEQLRNLWQQQQLGFAVYRSDMLCHEGVEFADIIDIRTKFYFESKYRTVWHQEIWRPNGKKPAVTATIEMVCMNQARQLAPMPAELITQLSLGM | soluble |
| MELSALTAVSPVDGRYGSKTIALREIFSEYGLLKYRTIVEIRWLQKLAATAEIAEVPAFSAEANQFLDDLAANFSEADALRIKEIERTTNHDVKAVEYFLKEKVADVPELHAVNEFFHFACTSEDINNTSHALMLKEARETVILPEIRNLIDAIKALAVEYRDIPLLSRTHGQPASPSTMGKEMANVAYRMERQYKQIENVEILAKINGAVGNYNAHLSAYPELDWHKFSEEFITESLGVTWNPYTTQIEPHDYIAELFDAVARFNTILIDFDRDVWGYIALGHFKQKTIAGEIGSSTMPHKVNPIDFENSEGNLGLANAVFGHLAQKLPISRWQRDLTDSTVLRNLGVGVGYAIIAYTSTLKGISKLEVNRDALLAELDKNWEVLAEPVQTVMRRYGIEKPYEKLKELTRGKRVDGEAMRNFIDGLELPEHEKARLKEMTPANYIGQAIELTDKL | not soluble |
| MAKVLCVLYDDPVDGYPKTYARDDLPKIDHYPGGQTLPTPKAIDFTPGQLLGSVSGELGLRKYLESNGHTLVVTSDKDGPDSVFERELVDADVVISQPFWPAYLTPERIAKAKNLKLALTAGIGSDHVDLQSAIDRNVTVAEVTYCNSISVAEHVVMMILSLVRNYLPSHEWARKGGWNIADCVSHAYDLEAMHVGTVAAGRIGLAVLRRLAPFDVHLHYTDRHRLPESVEKELNLTWHATREDMYPVCDVVTLNCPLHPETEHMINDETLKLFKRGAYIVNTARGKLCDRDAVARALESGRLAGYAGDVWFPQPAPKDHPWRTMPYNGMTPHISGTTLTAQARYAAGTREILECFFEGRPIRDEYLIVQGGALAGTGAHSYSKGNATGGSEEAAKFKKAV | soluble |
| MSLRAELNQGLIDFLKASPTPFHATASLARRLEAAGYRRLDERDAWHTETGGRYYVTRNDSSLIAIRLGRRSPLESGFRLVGAHTDSPCLRVKPNPEIARNGFLQLGVEVYGGALFAPWFDRDLSLAGRVTFRANGKLESRLVDFRKAIAVIPNLAIHLNRAANEGWPINAQNELPPIIAQLAPGEAADFRLLLDEQLLREHGITADVVLDYELSFYDTQSAAVVGLNDEFIAGARLDNLLSCHAGLEALLNAEGDENCILVCTDHEEVGSCSHCGADGPFLEQVLRRLLPEGDAFSRAIQRSLLVSADNAHGVHPNYADRHDANHGPALNGGPVIKINSNQRYATNSETAGFFRHLCQDSEVPVQSFVTRSDMGCGSTIGPITASQVGVRTVDIGLPTFAMHSIRELAGSHDLAHLVKVLGAFYASSELEGHHHHHH | soluble |
| AIALRADKPKCSIQNFFIPALGKDPNSRDNTTLNFMVRCDNPNKDKGIYYDDVHLNFSTINTTKINSSALVLVGNYTVPKFYQGHKKKAKKWGQVKPLNNQTVLRAVLPNGSAVFRLDLKTQVRFKIVFWKTKRYGVEVGADVEVNGDGVKAQKKGIKMKKS | soluble |
| MGSDKIHHHHHHMTINDLQAFVMVYDLRHISNAAVELHLSQSELSKRMRALENELNIKLLDTHNKRRLQITPAGETFYHHAHKMITDYETMMHDLAPNRPTTFAKLIIGAIPISGQYNIAKKIATFDTQHPDTEIKIIEDEGDQIVKRLLSGELQAAIIRDTQTTQLQPTEFQKQPLLADELKIILPRDHPLATQPVIRIQDLARQKIATLPPGSGVYEPINALFAQQGMTPQFFFESTHIETLLGILNQNNVTFLFKQSVLPFMTEHVVMRSLAIPFISQLNFVYPQRTGNQLLTDLIDYLTVTAQENQQV | not soluble |
| YRRFEKEKLKSQWNNDNPLFKSATTTVMNPKFAES | soluble |
| GMAEDQTVLAIDIGGSHVKIGLSTDGEERKVESGKTMTGPEMVAAVTAMAKDMTYDVIAMGYPGPVVHNKPLREPVNLGEGWVGYDYEGAFGRPVRIVNDALMQAIGSYNGGRMLFLGLGTGLGAAMIVENVAQPMEIAHLPYRKGKTYEHYVSEAYREKKGNAKWQKRVQDVVERLSAALEPDEVVIGGGNVERLENLPPKCRRGDNAMAFEGGFRLWKNADLIV | soluble |
| MGTRRDVRQEMLDDVQKKLMSLANSSEGKVDKVLMRNLFIGHFHTPKNQRHEVLRLMGSILGVRREEMEQLFHDDQGSVTRWMTGWLGGGSKSVPNTPLRPNQQSVVNSSFSELFVKFLETESHPSIPPPKLSVHDMKPLDSPGRRKRDTNAPESFKDTAESRSGRRTDVNPFLAPRSAAVPLINPAGLGPGGPGIFFLEHHHHHH | not soluble |
| MSLYGKRLVVFAPLYVSNYCVNNCTYCGYKHCNDELKRKKLNKEQLIEEVKVLESLGHKRIALEAGEDPVNAPLDYILDCIKSIYSIKFDNGSIRRINVNIAATSVEDYKRLKDAEIGTYILFQETYHKPTYERLHVSGPKHNYNYHTTAMHRAREAGIDDIGMGVLYGLYDYKYETLAMLMHAMDLEETTGVGPHTLSVPRIRPAENVSLENYPYLVDDEDFKKIVAILRLAVPYAGLILSTREEPGLRDEIIALGVSQVSTGSCTGVGGYSESYIDPEEKPQFEVGDHRSPVEMIESLMEAGYIPSYCTACYREGRTGERFMDIVKSGELYKICEANALITLKEFIDDYGTDRTREIGDKLIKKSIDEIDNESFRKSVEEKINKISNGTRDLRFEGHHHHHH | not soluble |
| MSLTVSARRADAQRNRELILDAAREQLREPGELKMNAVAKACGIGQGTLYRHFPTREDLLVEVYRHDVEELVAAASDMVSTRSPVEALAGWFERVAAYARVKNHVFAAVEAATWRDLAAHSLGPIGEAVELLLAAGRAEGSMRADVEARDVIVLIGWLSRLDDTELDERGPRLLSVLLDGLRTPQGEGHHHHHH | soluble |
| MDAFIVDPVQGELYSGLSHTELADIIRLADSVENQLNGGNSFLDVFSTYMGQVISEFMHSNDNRIELLQRRLHSCSFLVNIEEMSYIDEALQCPITLAIPQRGVFLRNAEGSRVCSLYDEMALSRIINDGMHHPLSREPITLSMLVAREQCEFDCSIGHFTVRSDCYSV | soluble |
| MNVTEQNSHQILIQKLLVSIHYLTLFRDELKLVERTPSILGGEFPAHLVQSELGDIVAAIDTLDMQQRLIESTFWYEESAFKLMNKTLDIVDNWIKGVDHLIDLCQSKEVFQIIIGDKRIRVFGVLSDVFSSLKVSALSLKEAPIPDVLYEHIQRVNLEEEAFIKYYQSPKVPTGEFE | not soluble |
| MEERPSETNSNVDSSAQPSVAQLAGRFREHAAVARETPASKPTRRKPPCSLPLFPPKVELGQNGEEKSPSGASHPPKIKVKSSPLIEKLQANLAFDPAALLPGASPKSPGLKAIISPFHSPPSTPSSPGIRSHPSEAEEVPVSFDQPPEGTHLPSYNKVRTRGSIKRRPPSRRFRRSQSDCGDFRDYRAVEPSQENGAREENGDDVFPSKSKDPGSPQLNQEAMADGVEGTPRSAEKPRRRNTCNSTEKPEELVRTPEEANAGEKVGQNPDTASQGHPEVQAPSQTGSPEAENGCGSPREETAPGEHTDTGKATEGTASEERVADEDRLGQKSPDANMPEEEGVVREKAPQTSSGKAEGTTIAEPDTKQKEEAPLEPSCSPGADHAAGEITSEIQNEKAVSMDDIPIEDTRM | not soluble |
| MEPPKPEYAPTAHSRYNSQYFYWLFLDLFHLEPSMKLFPSLATLTLCSLMSAPLLAAEQAPELTGCAAKRQAIMNQIEQAKAHGNSNQQAGLERALSEVTAHCTDASLKKERENKVLEAKHEVSRRQADLEKAMKKGDSEKINKRKDKLAESRKELQQALDELDKLEHHHHHH | not soluble |
| MGHHHHHHSHMAGAQPGVHALQLKPVCVSDSLKKGTKFVKWDDDSTIVTPIILRTDPQGFFFYWTDQNKETELLDLSLVKDARCGRHAKAPKDPKLRELLDVGNIGRLEQRMITVVYGPDLVNISHLNLVAFQEEVAKEWTNEVFSLATNLLAQNMSRDAFLEKAYTKLKLQVTPEGRIPLKNIYRLFSADRKRVETALEACSLPSSRN | not soluble |
| MGSDKIHHHHHHMQVEGLSINLATIREQCGFAEAVDICLKHGITAIAPWRDQVAAIGLGEAGRIVRANGLKLTGLCRGGFFPAPDASGREKAIDDNRRAVDEAAELGADCLVLVAGGLPGGSKNIDAARRMVVEGIAAVLPHARAAGVPLAIEPLHPMYAADRACVNTLGQALDICETLGPGVGVAIDVYHVWWDPDLANQIARAGKMKAILAHHICDWLVPTKDMLTDRGMMGDGVIDLKGIRRRIEAAGFHGAQEVEIFSADNWWKRPADEVIATCVERYRNCC | not soluble |
| MQIKLANPRGFCAGVDRAIEIVNRALEVFGPPIYVRHEVVHNKFVVEDLRSRGAIFVEELEQVPDDVIVIFSAHGVSQAVRTEAAGRGLKVFDATCPLVTKVHIEVARYSRDGRECILIGHAGHPEVEGTMGQYDAVNGGAIYLVEDEADVASLEVRNPESLAFVTQTTLSMDDTSRVIDALRKRFPAIGGPRKDDICYATQNRQDAVKQLADECDVVLVVGSPNSSNSNRLRELAERMATPAYLIDGAEDMQKGWFDGVERIGITAGASAPEVLVRGVIQQLQAWGATGADELAGREENITFSMPKELRVKSLLLEHHHHHH | not soluble |
| MIAAQLLAYYFTELKDDQVKKIDKYLYAMRLSDETLIDIMTRFRKEMKNGLSRDFNPTATVKMLPTFVRSIPDGSEKGDFIALDLGGSSFRILRVQVNHEKNQNVHMESEVYDTPENIVHGSGSQLFDHVAECLGDFMEKRKIKDKKLPVGFTFSFPCQQSKIDEAILITWTKRFKASGVEGADVVKLLNKAIKKRGDYDANIVAVVNDTVGTMMTCGYDDQHCEVGLIIGTGTNACYMEELRHIDLVEGDEGRMCINTEWGAFGDDGSLEDIRTEFDRAIDAYSLNPGKQLFEKMVSGMYLGELVRLILVKMAKEGLLFEGRITPELLTRGKFNTSDVSAIEKNKEGLHNAKEILTRLGVEPSDDDCVSVQHVCTIVSFRSANLVAATLGAILNRLRDNKGTPRLRTTVGVDGSLYKTHPQYSRRFHKTLRRLVPDSDVRFLLSESGSGKGAAMVTAVAYRLAEQHRQIEETLAHFHLTKDMLLEVKKRMRAEMELGLRKQTHNNAVVKMLPSFVRRTPDGTENGDFLALDLGGTNFRVLLVKIRSGKKRTVEMHNKIYAIPIEIMQGTGEELFDHIVSCISDFLDYMGIKGPRMPLGFTFSFPCQQTSLDAGILITWTKGFKATDCVGHDVVTLLRDAIKRREEFDLDVVAVVNDTVGTMMTCAYEEPTCEVGLIVGTGSNACYMEEMKNVEMVEGDQGQMCINMEWGAFGDNGCLDDIRTHYDRLVDEYSLNAGKQRYEKMISGMYLGEIVRNILIDFTKKGFLFRGQISETLKTRGIFETKFLSQIESDRLALLQVRAILQQLGLNSTCDDSILVKTVCGVVSRRAAQLCGAGMAAVVDKIRENRGLDRLNVTVGVDGTLYKLHPHFSRIMHQTVKELSPKCNVSFLLSEDGSGKGAALITAVGVRLRTEASS | soluble |
